Measured values taken from PMC12174363, “Multiple glutathione-S-transferases detoxify diverse glucosinolate-based defenses of Brassicales plants in a generalist lepidopteran herbivore (Spodoptera littoralis)” (Communications Biology, 2025).

Key:
purified protein [1] = substrate: C=CCN=C=S; test: purified protein; assay type: biochemical, Spodoptera littoralis; conditions: 4 mM GSH (saturating), 100 mM potassium phosphate pH 6.5, 25 °C, 2.4% acetonitrile
purified protein [2] = substrate: S=C=NCc1ccccc1; test: purified protein; assay type: biochemical, Spodoptera littoralis; conditions: 4 mM GSH (saturating), 100 mM potassium phosphate pH 6.5, 25 °C, 2.4% acetonitrile

| Protein | Km (purified protein [1]) | Vmax (purified protein [1]) | kcat (purified protein [1]) | kcat/Km (purified protein [1]) | Km (purified protein [2]) | Vmax (purified protein [2]) | kcat (purified protein [2]) | kcat/Km (purified protein [2]) |
| --- | --- | --- | --- | --- | --- | --- | --- | --- |
| GSTS6 (GSTs6) (Spodoptera littoralis) (protein, cytosolic sigma class) MPKKLSYFNLNGLAEPIRYILHYTNQEFEDVRYDVYSWPDPKIKASLPYGQFPVYEEDGRVLTQSLAITKYVARGTDLVPTDPWDNAFIESVIFSIMDYWKNVVPTVREPDPAKYTELRNEIIEKNIPYYFSRFNKHLEDNGGFLNGKLSWGDFVFCGVIEASDMFLGIELSKDYPAVGSLVQHIRNLPGVKEYVKSIGPYTIDLARFKYKK | 567.11 ± 131.85 µM | 39.3 µmol/min/mg | 16.1 ± 2.28 s⁻¹ | 28400 ± 4020 M⁻¹ s⁻¹ | 98.24 ± 21.15 µM | 52.7 µmol/min/mg | 21.6 ± 1.46 s⁻¹ | 220000 ± 14900 M⁻¹ s⁻¹ |
| GSTE14 (GSTe14) (Spodoptera littoralis) (protein, cytosolic epsilon class) MGVKLYVMDFSPPSRACMLTCEIFGIPFEKIPVDLFKGEHLAPNYLQKNPLHTIPVLEDGDLILYDSHAIMAYLADTYGKDESWYPKDVKKRALVNQKLFFNTAVIYRRLRNITYYVFQRGRKTLEQDWLDDIAEGYGFLEAFLSKTKYIAGDHITIADIAILSHLTNLEYILPIDAKKYPKTSAWLEDFKATPYAKKHNEEGAKALNDLLKKFLTS | 124.10 ± 15.66 µM | 89.4 µmol/min/mg | 37.4 ± 1.85 s⁻¹ | 302000 ± 14900 M⁻¹ s⁻¹ | 185.37 ± 89.77 µM | 47.3 µmol/min/mg | 19.8 ± 3.35 s⁻¹ | 107000 ± 37300 M⁻¹ s⁻¹ |
